# Source: patent US20230364254A1, “METHODS FOR TREATING CANCERS WITH ANTIBODY DRUG CONJUGATES (ADC) THAT BIND TO 191P4D12 PROTEINS” (priority 2020, published 2023)
# System: patients with locally advanced or metastatic urothelial cancer
# Experiment: Same phase 2 study: safety (adverse events, NCI CTCAE v4.03)
# Format: in vivo, human
# Text: Safety assessments will be based on the information collected through the safety surveillance process and will include the data from recorded adverse events (AEs) including SAEs, recording of concomitant medication, physical examination findings, cardiac monitoring, and laboratory tests.
# The assessment of safety during the course of this study will consist of the surveillance and recording of AEs including SAEs, recording of concomitant medication, and measurements of protocol-specified physical examination findings, cardiac monitoring, and laboratory tests.
# AE severity should be graded using the National Cancer Institute's Common Terminology Criteria for Adverse Events (NCI CTCAE), Version 4.03. These criteria are provided in the study manual.
# An overview of AEs will provide a tabulation of the incidence of all AEs, treatment-emergent AEs, treatment-related AEs, Grade 3 and higher AEs. SAEs, treatment-related SAEs, deaths, and AEs leading to study treatment discontinuation. Adverse events will be defined as treatment emergent if they are newly occurring or worsened following study treatment.
# AEs will be classified by system organ class and preferred tem using the Medical Dictionary for Regulatory Activities (MedDRA) and graded using NCI CTCAE, Version 4.03.
# The incidence of AEs will be summarized by system organ class, preferred term, severity and relationship to study drug. In the event of multiple occurrences of the same AE in one patient, the AE will be counted once as the occurrence for the maximum grade. AEs leading to premature discontinuation of study drug will be summarized and listed in the same manner.
# [1] = Total (N = 214), count (percent)
# [2] = treatment-related TEAEs of interest
# [3] = treatment-related TEAEs of interest, as of last follow-up
# [4] = treatment-related TEAEs of interest, enfortumab vedotin 1.25 mg/kg, patients with locally advanced or metastatic urothelial cancer
# [5] = treatment-related TEAEs of interest, most occurred in Cycle 1
substance,measurement,setting,value
enfortumab vedotin: Nectin-4 directed ADC: fully human anti-nectin-4 IgG1 kappa antibody (AGS-22C3) conjugated to MMAE via protease-cleavable maleimidocaproyl valine-citrulline linker,Treatment-related AE leading to discontinuation: Multiple organ dysfunction syndrome,Total (N = 214),1 (0.5) n (%)
same,Treatment-related AE leading to discontinuation: Muscular weakness,Total (N = 214),1 (0.5) n (%)
same,Treatment-related AE leading to discontinuation: Overall,Total (N = 214),29 (13.6) n (%)
same,Treatment-related AE leading to discontinuation: Peripheral motor neuropathy,Total (N = 214),1 (0.5) n (%)
same,Treatment-related AE leading to discontinuation: Peripheral sensory neuropathy,Total (N = 214),12 (5.6) n (%)
same,Treatment-related AE leading to discontinuation: Pneumonitis,Total (N = 214),1 (0.5) n (%)
same,Treatment-related AE leading to discontinuation: Stevens-Johnson syndrome,Total (N = 214),1 (0.5) n (%)
same,Treatment-related TEAEs,Total (N = 214),203 (94.9) n (%)
same,Treatment-related TEAEs (all grades): Alopecia,Total (N = 214),107 (50.0) n (%)
same,Treatment-related TEAEs (all grades): Anaemia,Total (N = 214),49 (22.9) n (%)
same,Treatment-related TEAEs (all grades): Aspartate aminotransferase increased,Total (N = 214),24 (11.2) n (%)
same,Treatment-related TEAEs (all grades): Decreased appetite,Total (N = 214),84 (39.3) n (%)
same,Treatment-related TEAEs (all grades): Diarrhoea,Total (N = 214),61 (28.5) n (%)
same,Treatment-related TEAEs (all grades): Dry eye,Total (N = 214),36 (16.8) n (%)
same,Treatment-related TEAEs (all grades): Dry skin,Total (N = 214),46 (21.5) n (%)
same,Treatment-related TEAEs (all grades): Dysgeusia,Total (N = 214),71 (33.2) n (%)
same,Treatment-related TEAEs (all grades): Fatigue,Total (N = 214),92 (43.0) n (%)
same,Treatment-related TEAEs (all grades): Lacrimation increased,Total (N = 214),30 (14.0) n (%)
same,Treatment-related TEAEs (all grades): Nausea,Total (N = 214),70 (32.7) n (%)
same,Treatment-related TEAEs (all grades): Neutropenia,Total (N = 214),24 (11.2) n (%)
same,Treatment-related TEAEs (all grades): Oedema peripheral,Total (N = 214),25 (11.7) n (%)
same,Treatment-related TEAEs (all grades): Overall,Total (N = 214),203 (94.9) n (%)
same,Treatment-related TEAEs (all grades): Peripheral sensory neuropathy,Total (N = 214),92 (43.0) n (%)
same,Treatment-related TEAEs (all grades): Pruritus,Total (N = 214),59 (27.6) n (%)
same,Treatment-related TEAEs (all grades): Rash maculo-papular,Total (N = 214),55 (25.7) n (%)
same,Treatment-related TEAEs (all grades): Vomiting,Total (N = 214),26 (12.1) n (%)
same,Treatment-related TEAEs (all grades): Weight decreased,Total (N = 214),52 (24.3) n (%)
same,Treatment-related TEAEs leading to death,Total (N = 214),3 (1.4) n (%)
same,Treatment-related TEAEs leading to treatment discontinuation,Total (N = 214),29 (13.6) n (%)
same,Treatment-related TEAEs ≥Grade 3: Acute kidney injury,Total (N = 214),5 (2.3) n (%)
same,Treatment-related TEAEs ≥Grade 3: Amylase increased,Total (N = 214),6 (2.8) n (%)
same,Treatment-related TEAEs ≥Grade 3: Anaemia,Total (N = 214),14 (6.5) n (%)
same,Treatment-related TEAEs ≥Grade 3: Aspartate aminotransferase increased,Total (N = 214),6 (2.8) n (%)
same,Treatment-related TEAEs ≥Grade 3: Decreased appetite,Total (N = 214),6 (2.8) n (%)
same,Treatment-related TEAEs ≥Grade 3: Diarrhoea,Total (N = 214),8 (3.7) n (%)
same,Treatment-related TEAEs ≥Grade 3: Fatigue,Total (N = 214),14 (6.5) n (%)
same,Treatment-related TEAEs ≥Grade 3: Febrile neutropenia,Total (N = 214),6 (2.8) n (%)
same,Treatment-related TEAEs ≥Grade 3: Hyperglycaemia,Total (N = 214),10 (4.7) n (%)
same,Treatment-related TEAEs ≥Grade 3: Hyponatraemia,Total (N = 214),6 (2.8) n (%)
same,Treatment-related TEAEs ≥Grade 3: Lipase increased,Total (N = 214),10 (4.7) n (%)
same,Treatment-related TEAEs ≥Grade 3: Neutropenia,Total (N = 214),18 (8.4) n (%)
same,Treatment-related TEAEs ≥Grade 3: Neutrophil count decreased,Total (N = 214),16 (2.8) n (%)
same,Treatment-related TEAEs ≥Grade 3: Overall,Total (N = 214),119 (55.6) n (%)
same,Treatment-related TEAEs ≥Grade 3: Peripheral sensory neuropathy,Total (N = 214),5 (2.3) n (%)
same,Treatment-related TEAEs ≥Grade 3: Pruritus,Total (N = 214),5 (2.3) n (%)
same,Treatment-related TEAEs ≥Grade 3: Rash erythematous,Total (N = 214),6 (2.8) n (%)
same,Treatment-related TEAEs ≥Grade 3: Rash maculo-papular,Total (N = 214),12 (5.6) n (%)
same,Treatment-related grade 3-5 TEAEs,Total (N = 214),119 (55.6) n (%)
same,Treatment-related serious TEAEs,Total (N = 214),39 (18.2) n (%)
same,TEAEs leading to death (excluding disease progression): Acute kidney injury,[1],2 (0.9)
same,TEAEs leading to death (excluding disease progression): Acute respiratory failure,[1],1 (0.5)
same,TEAEs leading to death (excluding disease progression): Cardiac disorder,[1],1 (0.5)
same,TEAEs leading to death (excluding disease progression): Metabolic acidosis,[1],1 (0.5)
same,TEAEs leading to death (excluding disease progression): Multiple organ dysfunction syndrome,[1],1 (0.5)
same,TEAEs leading to death (excluding disease progression): Overall,[1],9 (4.2)
same,TEAEs leading to death (excluding disease progression): Pneumonia aspiration,[1],1 (0.5)
same,TEAEs leading to death (excluding disease progression): Sepsis,[1],2 (0.9)
same,Discontinuation due to treatment-related peripheral neuropathy,cohort 1,6%
same,Discontinuation rate due to treatment-related AEs,cohort 1,12%
same,Grade 3 or Grade 4 treatment-related TEAE: anemia,cohort 1,7%
same,Grade 3 or Grade 4 treatment-related TEAE: fatigue,cohort 1,6%
same,Grade 3 or Grade 4 treatment-related TEAE: neutropenia,cohort 1,8%
same,SAE (unrelated and related): cellulitis,cohort 1,4.8%
same,SAE (unrelated and related): urinary tract infection,cohort 1,4.8%
same,cases of Stevens-Johnson Syndrome reported,cohort 1,One
same,related SAE: febrile neutropenia,cohort 1,4%
same,subjects with a Grade 3 or Grade 4 treatment-related TEAE,cohort 1,54%
same,deaths assessed as treatment-related,"cohort 1, interstitial lung disease",one and One
same,Discontinuation due to treatment-related peripheral neuropathy,cohort 2,4.5%
same,Discontinuation rate due to treatment-related AEs,cohort 2,15.7%
same,SAE (unrelated and related): acute kidney injury,cohort 2,10.1%
same,deaths assessed as treatment-related by investigators,cohort 2,Four
same,related SAE: acute kidney injury,cohort 2,3.4%
same,subjects with a treatment-related TEAE greater than or equal to Grade 3,cohort 2,55.1%
same,treatment-related TEAE ≥Grade 3: fatigue,cohort 2,6.7%
same,treatment-related TEAE ≥Grade 3: neutropenia,cohort 2,9%
same,treatment-related TEAE ≥Grade 3: rash maculo-popular,cohort 2,7.9%
same,"Hyperglycemia, >Grade 3",[2],6%
same,"Peripheral Neuropathy, >Grade 3",[2],8%
same,"Peripheral Neuropathy, Median Onset",[2],2.6 months
same,"Skin Reactions, >Grade 3",[2],17%
same,"Hyperglycemia, Resolution/improvement",[3],89%
same,"Peripheral Neuropathy, Resolution/improvement",[3],54%
same,"Skin Reactions, Resolution/improvement",[3],80%
same,"Hyperglycemia, Any grade",[4],10%
same,"Peripheral Neuropathy, Any grade",[4],56%
same,"Skin Reactions, Any grade",[4],61%
same,"Hyperglycemia, Median Onset",[5],0.5ª months
same,"Skin Reactions, Median Onset",[5],0.5ª months
